Data: PMC7979924 (2021)

B1: TDP-43 RRM2 (176–277aa.) (protein)
chain: KLPNSKQSQDEPLRSRKVFVGRCTEDMTEDELREFFSQYGDVMDVFIPKPFRAFAFVTFADDQIAQSLCGEDLIIKGISVHISNAEPKHNSNRQLERSGRFG
B2: FUS (RRM, 165–385aa.) (protein)
chain: SGGGGGGGGGGNYGQDQSSMSSGGGSGGGYGNQDQSGGGGSGGYGQQDRGGRGRGGSGGGGGGGGGGYNRSSGGYEPRGRGGGRGGRGGMGGSDRGGFNKFGGPRDQGSRHDSEQDNSDNNTIFVQGLGENVTIESVADYFKQIGIIKTNKKTGQPMINLYTDRETGKLKGEATVSFDDPPSAKAAIDWFDGKEFSGNPIKVSFATRRADFNRGGGNGRGG
B3: TDP43 (RRM 1–2, 101–277aa.) (protein)
chain: QKTSDLIVLGLPWKTTEQDLKEYFSTFGEVLMVQVKKDLKTGHSKGFGFVRFTEYETQVKVMSQRHMIDGRWCDCKLPNSKQSQDEPLRSRKVFVGRCTEDMTEDELREFFSQYGDVMDVFIPKPFRAFAFVTFADDQIAQSLCGEDLIIKGISVHISNAEPKHNSNRQLERSGRFG

Key:
Lin28-CSD (32–136 aa.) = biological target: T1, Lin28-CSD (32–136 aa.) (Homo sapiens (Human), UniProt Q9H9Z2); experiment: NMR 1H-15N HSQC (peak heights); in presence of 20-nt poly(C) ssDNA; tests co-association on nucleic acid, not direct protein-protein binding
T1 chain: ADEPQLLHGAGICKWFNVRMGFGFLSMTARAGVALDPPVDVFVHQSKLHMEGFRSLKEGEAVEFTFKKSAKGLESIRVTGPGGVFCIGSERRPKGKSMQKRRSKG

YB-1-CSD (1–180 aa.) = YB-1-CSD (1–180 aa.) (Homo sapiens (Human), UniProt P67809); experiment: EMSA; in presence of ssDNA (M13, stem-loop or C20); tests mixing/cooperative co-association on nucleic acid, not direct binding
Chain of YB-1-CSD (1–180 aa.) (P67809 1-180): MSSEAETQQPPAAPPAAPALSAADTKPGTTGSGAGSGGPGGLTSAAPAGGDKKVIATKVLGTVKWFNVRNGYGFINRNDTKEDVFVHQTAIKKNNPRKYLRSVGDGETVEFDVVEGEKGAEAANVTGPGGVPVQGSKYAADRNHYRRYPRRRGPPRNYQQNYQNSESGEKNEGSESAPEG

| Binder | binding result (Lin28-CSD (32–136 aa.)) | binding result (YB-1-CSD (1–180 aa.)) |
| --- | --- | --- |
| B1 | no binding |  |
| B2 |  | no binding |
| B3 |  | no binding |
